In assay [1] the test system is HUVECs. The experiment in a line: Quantitative RT-PCR of TARS mRNA. To be noted: HUVECs exposed to 50 ng/ml VEGF or TNF-α. It is filed as cell-based, human. As to the method: Quantitative RT-PCR—Total RNA was extracted from cells using the RNeasy column protocol and cDNA was generated using an Omniscript reverse transcriptase assay according to the manufacturer's instructions (Qiagen, Frederick, Md.). Primers and probes for TARS and β2-microglobulin were Assays-on-Demand (Applied Biosystems, [Life Technologies, Carlsbad, Calif.]). RT-qPCR was performed using an ABI prism 7700 Sequence Detection System (Applied Biosystems). The relative quantity of mRNA level was determined using the comparative CT (ΔΔCT) method using β2-microglobulin to normalize mRNA level (Cassavaugh, Hale et al. 2011).

Assay [2] concerns human TARS. Description: Ap4A formation assay. It is filed as biochemical. To be noted: 5 μM enzyme, 2 mM threonine, 2 mM ATP. As for the experimental part: TARS purification and active site determination were performed as previously described (Williams, Mirando et al., 2013). TARS non-canonical catalytic activities were characterized using modifications from published methods (Guo, Chong et al. 2009). For Ap4A reactions 5 μM of wildtype TARS or R442A TARS were incubated for 10 minutes on ice with 2 mM threonine, and 10 μM BC194 or borrelidin as indicated in FIG. 17C. Reactions were initiated using 2 mM ATP with trace amounts of [α-^32P]-ATP as label. At specific time points aliquots were quenched in 3 volumes of 0.1% SDS, 400 mM sodium acetate and resolved on polyethyleneimine-cellulose plates by thin-layer chromatography (TLC) in 3 M NH4 (SO4)2 and 2% EDTA. Radioactive counts were identified by phosphorimaging and products quantified as fractions of total ATP added. The quantitation of product was normalized to take into account the fact that each Ap4A molecule has two equivalents of radioactive phosphorus.

The test system of assay [3] is human TARS. Description: Ap4G formation assay. To be noted: 2 mM ATP, 2 mM threonine, 2 mM GTP. It counts as biochemical.
Assay [4] has as its system human TARS. Description: GTPase assay (GTP hydrolysis). It is filed as biochemical. To be noted: 2 mM GTP.
Assay [5] has as its system chorioallantoic membrane (CAM). The experiment in a line: Chick chorioallantoic membrane (CAM) assay. It is filed as in vivo, chicken. To be noted: for vessel formation / vascularization on the CAM after applied protein: purified protein applied daily to sponge, scored over 72 h. As to the method: Chick Chorioallantoic Membrane Assay-Fertilized chicken eggs (Sunrise Farms, Catskill, N.Y.) day 1-2 post-laying were incubated in a humidified incubator at 37° C. for 72 h. Cleaned eggs were cracked and plated in a sterile 10 cm^2 tissue culture-treated dish and incubated at 37° C. for another 7 days. On developmental day 10, 1 mm^3 sterile gelatin sponge pieces (Surgifoam®; Johnson & Johnson Wound Management, Somerville, N.J.) were placed within the outer one-third of the membrane between large vessels. 40 μg/ml human bFGF and 2 μg/mL human VEGF were used as pro-angiogenic control compounds; 100 μg/mL retinoic acid (Sigma-Aldrich, St. Louis, Mo.) diluted in phosphate-buffered saline (PBS) was used as an angiostatic control. All compounds were applied in 10 μl to the CAM every 24 h for 72 h. Images were taken using a Leica MZ6 stereomicroscope every 24 h. Compounds were scored according to a modified version of Intensity Scoring as previously described (Ribatti, Nico et al. 2006). Briefly, each experimental condition was given a blinded score from 0-5 based on the change in the extent of vessel convergence and formation in proximity to the sponge from day 0 to day 3. Total score is averaged individual experimental condition scores from at least 15 replicates.
Fertilized chicken embryos were cultured ex-ova and, starting at developmental day 10, agents were applied daily to gelfoam sponges on the CAM. Images were recorded daily over 72 h and scored blindly according to a modified version Intensity Scoring as previously described (Ribatti, Nico et al. 2006). Additional details regarding methods are provided in the Methods and Materials section of Example 1.

In assay [6] the test system is human TARS. The experiment in a line: Steady state aminoacylation assay. It counts as biochemical. To be noted: purified protein. As for the experimental part: Steady State Aminoacylation Assay-The aminoacylation activities of the TARS constructs were determined using modifications to established procedures ([…] et al 2008). Briefly, reaction mixtures consisted of 20 mM Tris-HCl pH 8.0, 100 mM KCl, 10 mM MgCl2, 1 mM dithiothreitol, 2 mM ATP, 2.5 U pyrophosphatase (Roche), 80 μM threonine, 20 μM [14C]-threonine, and 5 μM of E. coli or human […]. Reactions were initiated with the addition of 0.25-0.75 μM TARS and run at 37° C. Aliquots were taken at varying time points and spotted onto Whatmann 3MM paper filters pre-soaked in 5% trichloroacetic acid (TCA). Upon completion, the filters were washed 3 times in excess TCA, once in 95% ethanol, and dried under a heating lamp. The formation of […] was detected by scintillation counter and the activity determined by linear regression of […] formed per active site per unit time.

“Also recorded” adds a separate entry of the source.

For VEGF, the “TARS mRNA / transcription” value in assay [1] is “neither VEGF nor TNF-α induced an increase; also recorded: do not induce TARS transcription”.

As for TNF-α, in assay [1], the “TARS mRNA / transcription” value was “neither VEGF nor TNF-α induced an increase; also recorded: do not induce TARS transcription”.

B1: E. coli ThrRS: bacterial (E. coli) threonyl-tRNA synthetase (protein, UniProt P0A8M3 1-642, looked up)
Threonine--tRNA ligase: MPVITLPDGSQRHYDHAVSPMDVALDIGPGLAKACIAGRVNGELVDACDLIENDAQLSIITAKDEEGLEIIRHSCAHLLGHAIKQLWPHTKMAIGPVIDNGFYYDVDLDRTLTQEDVEALEKRMHELAEKNYDVIKKKVSWHEARETFANRGESYKVSILDENIAHDDKPGLYFHEEYVDMCRGPHVPNMRFCHHFKLMKTAGAYWRGDSNNKMLQRIYGTAWADKKALNAYLQRLEEAAKRDHRKIGKQLDLYHMQEEAPGMVFWHNDGWTIFRELEVFVRSKLKEYQYQEVKGPFMMDRVLWEKTGHWDNYKDAMFTTSSENREYCIKPMNCPGHVQIFNQGLKSYRDLPLRMAEFGSCHRNEPSGSLHGLMRVRGFTQDDAHIFCTEEQIRDEVNGCIRLVYDMYSTFGFEKIVVKLSTRPEKRIGSDEMWDRAEADLAVALEENNIPFEYQLGEGAFYGPKIEFTLYDCLDRAWQCGTVQLDFSLPSRLSASYVGEDNERKVPVMIHRAILGSMERFIGILTEEFAGFFPTWLAPVQVVIMNITDSQSEYVNELTQKLSNAGIRVKADLRNEKIGFKIREHTLRRVPYMLVCGDKEVESGKVAVRTRRGKDLGSMDVNEVIEKLQQEIRSRSLKQLEE
Regarding B1, the “production of Ap4A” value in assay [2] is listed as 0.5612 Ap4A/active site/min. Also, the “rate of Ap4G formation” value in assay [3] was found to be 0.5612 Ap4G/active site/min. For the same molecule, the GTP hydrolysis result in assay [4] is reported as “not”.

B2: L567V TARS: BC194-resistant (borrelidin-resistant) L567V mutant of human TARS (protein, UniProt P26639 1-723, looked up, variant L567V)
Threonine--tRNA ligase 1, …: MFEEKASSPSGKMGGEEKPIGAGEEKQKEGGKKKNKEGSGDGGRAELNPWPEYIYTRLEMYNILKAEHDSILAEKAEKDSKPIKVTLPDGKQVDAESWKTTPYQIACGISQGLADNTVIAKVNNVVWDLDRPLEEDCTLELLKFEDEEAQAVYWHSSAHIMGEAMERVYGGCLCYGPPIENGFYYDMYLEEGGVSSNDFSSLEALCKKIIKEKQAFERLEVKKETLLAMFKYNKFKCRILNEKVNTPTTTVYRCGPLIDLCRGPHVRHTGKIKALKIHKNSSTYWEGKADMETLQRIYGISFPDPKMLKEWEKFQEEAKNRDHRKIGRDQELYFFHELSPGSCFFLPKGAYIYNALIEFIRSEYRKRGFQEVVTPNIFNSRLWMTSGHWQHYSENMFSFEVEKELFALKPMNCPGHCLMFDHRPRSWRELPLRLADFGVLHRNELSGALTGLTRVRRFQQDDAHIFCAMEQIEDEIKGCLDFLRTVYSVFGFSFKLNLSTRPEKFLGDIEVWDQAEKQLENSLNEFGEKWELNSGDGAFYGPKIDIQIKDAIGRYHQCATIQLDFQVPIRFNLTYVSHDGDDKKRPVIVHRAILGSVERMIAILTENYGGKWPFWLSPRQVMVVPVGPTCDEYAQKVRQQFHDAKFMADIDLDPGCTLNKKIRNAQLAQYNFILVVGEKEKISGTVNIRTRDNKVHGERTISETIERLQQLKEFRSKQAEEEF
For the molecule B2, the “sensitivity of protein-stimulated CAM vessel formation to BC194” value in assay [5] (protein applied together with BC194) is listed as “not inhibited by application of BC194”. Also, the “vessel formation / vascularization on the CAM after applied protein” value in assay [5] is recorded as “stimulated vessel formation”. For the same molecule, the “aminoacylation activity of the protein” value in assay [6] was “activity is not compromised”.

B3: R442A TARS: aminoacylation-deficient mutant of hTARS, active site Arg442 substituted with alanine (protein, UniProt P26639 1-723, looked up, variant R442A)
Threonine--tRNA ligase 1, …: MFEEKASSPSGKMGGEEKPIGAGEEKQKEGGKKKNKEGSGDGGRAELNPWPEYIYTRLEMYNILKAEHDSILAEKAEKDSKPIKVTLPDGKQVDAESWKTTPYQIACGISQGLADNTVIAKVNNVVWDLDRPLEEDCTLELLKFEDEEAQAVYWHSSAHIMGEAMERVYGGCLCYGPPIENGFYYDMYLEEGGVSSNDFSSLEALCKKIIKEKQAFERLEVKKETLLAMFKYNKFKCRILNEKVNTPTTTVYRCGPLIDLCRGPHVRHTGKIKALKIHKNSSTYWEGKADMETLQRIYGISFPDPKMLKEWEKFQEEAKNRDHRKIGRDQELYFFHELSPGSCFFLPKGAYIYNALIEFIRSEYRKRGFQEVVTPNIFNSRLWMTSGHWQHYSENMFSFEVEKELFALKPMNCPGHCLMFDHRPRSWRELPLRLADFGVLHANELSGALTGLTRVRRFQQDDAHIFCAMEQIEDEIKGCLDFLRTVYSVFGFSFKLNLSTRPEKFLGDIEVWDQAEKQLENSLNEFGEKWELNSGDGAFYGPKIDIQIKDAIGRYHQCATIQLDFQLPIRFNLTYVSHDGDDKKRPVIVHRAILGSVERMIAILTENYGGKWPFWLSPRQVMVVPVGPTCDEYAQKVRQQFHDAKFMADIDLDPGCTLNKKIRNAQLAQYNFILVVGEKEKISGTVNIRTRDNKVHGERTISETIERLQQLKEFRSKQAEEEF
For the molecule B3, the “production of Ap4A” value in assay [2] is “no appreciable activity; also recorded: blocked”. Also, in assay [3], the “rate of Ap4G formation” value is listed as “not catalyzed; also recorded: blocked”. For the same molecule, the “vessel formation / vascularization on the CAM after applied protein” value in assay [5] is recorded as “virtually indistinguishable from wild type”. The GTP hydrolysis in assay [4] was determined as 0.2137 GDP/active site/min. The “aminoacylation activity of the protein” value in assay [6] is given as “essentially no aminoacylation activity; also recorded: virtually negligible aminoacylation function”.

The record behind these values is US11225653B2, “Methods and compounds for reducing threonyl-tRNA synthetase activity” (University of Vermont and State Agricultural College, priority 2012, dated 2022).
